Source: paper PMC11827635 (Science Advances, 2025)

B1: αE-catenin α(CA), as it stands in the tetramer and pentamer (natural protein, mouse, UniProt P26231 1-906, looked up)
chain: MTAVHAGNINFKWDPKSLEIRTLAVERLLEPLVTQVTTLVNTNSKGPSNKKRGRSKKAHVLAASVEQATENFLEKGDKIAKESQFLKEELVVAVEDVRKQGDLMKSAAGEFADDPCSSVKRGNMVRAARALLSAVTRLLILADMADVYKLLVQLKVVEDGILKLRNAGNEQDLGIQYKALKPEVDKLNIMAAKRQQELKDVGNRDQMAAARGILQKNVPILYTASQACLQHPDVAAYKANRDLIYKQLQQAVTGISNAAQATASDDAAQHQGGSGGELAYALNNFDKQIIVDPLSFSEERFRPSLEERLESIISGAALGADSSCTEDDRRERIVAECNAVRQALQDLLSEYMGNAGRKERSDALNSAIDKMTKKTRDLRRQLRKAVMDHVSDSFLETNVPLLVLIEAAKNGNEKEVKEYAQVFREHANKLIEVANLACSISNNEEGVKLVRMSASQLEALCPQVINAALALAAKPQSKLAQENMDLFKEQWEKQVRVLTDAVDDITSIDDFLAVSENHILEDVNKCVIALQEKDVDGLDRTAGAIRGRAAEVIHVVTSEMDNYEPGVYTEKVLEATKLLSNTVMPRFTEQVEAAVEALSSDPAQPMDENEFIDASRLVYDGIRDIRKAVLMIRTPEELDDSDFETEDFDVRSRTSVQTEDDQLIAGQSARAIMAQLPQEQKAKIAEQVASFQEEKSKLDAEVSKWDDSGNDIIVLAKQMCMIMMEMTDFTRGKGPLKNTSDVISAAKKIAEAGSRMDKLGRTIADHCPDSACKQDLLAYLQRIALYCHQLNICSKVKAEVQNLGGELVVSGVDSAMSLIQAAKNLMNAVVQTVKASYVASTKYQKSQGMASLNLPAVSWKMKAPEKKPLVKREKQDETQTKIKRASQKKHVNPVQALSEFKAMDSI
notes: αE-catenin, α(CA); residues 690 to 903 are modelled in PDB 9DVA; single chain of m5, m6, m11 and m18, written for the pairs that touch; also called αE-catenin ABD (in the structure); ABD1; source: FreeStyle 293-F, co-expressed and purified within the cadherin-catenin–vinculin complex

What was measured:
[1] = biological target: B1; experiment: cryo-EM structure; 2.5 μM tetramer premixed with 5 μM afadin-CC, added to 0.6 μM F-actin on the grid; straight filaments 3.1 Å, curved filaments decorated along one strand 4.1 Å; conditions: both partners purified
[2] = biological target: the molecule itself; experiment: as above

| Binder | binding result [1] | binding result [2] |
| --- | --- | --- |
| afadin coiled-coil region (afadin-CC) (domain or fragment, mouse, UniProt Q9QZQ1-3 1393-1602, looked up, afadin, coiled-coil region (afadin-CC); residues 1508 to 1578 are modelled in PDB 9DVA; also called afadin-CC domain; source: FreeStyle 293-F, purified (anti-GFP beads, TEV, MonoQ, Superdex 200); not shown: GFP, N-terminal, cleaved) ANQAGPQSAQVAAAEWKKREEHQRWYEKEKARLEEERERKRREQERKLGQMRSQTLNPASFSPLATQAKPEKPSTLQRPQETVIRELQPQQQPRTIERKDLQYITISKEELSSGDSLSPDPWKRDAREKLEKQQQMHIVDMLSKEIHELQNKVDRTAEESDRLRKLMLEWQFQKRLQESKQKDEDDDEEEDDDVDTMLIMQRLEAERRAR | binds | – |
| B1 | – | binds |
